Assay results from the supplement of paper PMC6757056.
± gives the standard deviation of the averaged measurements.

B1: library; a variant is named by its letters at N, in order (parent)
chain: GCUGUCACCGGUGUAUUACCCUAGUGGUCGACCGGUCUGAUGAGUCUNNNNNNAGACGAAACAGC

Legend:
hypoxanthine [1] = variants of: B1; assay: FACS-Seq fitted mean relative fluorescence mCherry/BFP without ligand (log10 relative fluorescence); ligand: hypoxanthine (xanthine aptamer); higher = higher reporter protein expression; settings: HEK293T, ligand present: no
Summary of the method: (§1)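 An mCherry reporter containing the ribozyme switch and an EF1α-BFP marker were introduced by lentivirus into HEK293T libraries. Cells were enriched, incubated 48 h with or without ligand, sorted into 6 bins by mCherry/BFP, and bin genomic DNA was PCR-amplified, barcoded and sequenced on MiSeq. Fluorescence represents the normalized fitted normal mean of the bin counts. Fitting was done on log10(mCherry/BFP), scaling to five spiked-in control ribozymes.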

hypoxanthine [2] = variants of: B1; assay: normalized RNA/DNA level with ligand (relative to sTRSVctl = 100) (log10 (% of sTRSVctl)); ligand: hypoxanthine (xanthine aptamer); higher = less ribozyme self-cleavage, higher mRNA level; settings: ligand concentration (+) RNA-Seq: 5 mM, HEK293T, reporter: mCherry (pCS4076), ligand present: yes
Summary of the method: (§2)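 HEK293T cells were transfected with library plasmids carrying ribozyme switches linked to an mCherry reporter, or an eGFP reporter in some ligand experiments, at 4 µg per well of a 6-well plate, with any ligand added 1 h beforehand. After 72 h, total RNA was extracted with EDTA, reverse-transcribed, amplified, barcoded and sequenced. RNA level was defined as RNA reads over DNA reads, normalized to a spiked-in non-cleaving sequence or to the top-ranked sequences. That value was multiplied by 100 and converted to log10, the top set was 25 sequences, and only sequences with ≥100 DNA reads were retained.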

hypoxanthine [3] = variants of: B1; assay: normalized RNA/DNA level without ligand (relative to sTRSVctl = 100) (log10 (% of sTRSVctl)); ligand: hypoxanthine (xanthine aptamer); higher = less ribozyme self-cleavage, higher mRNA level; settings: HEK293T, reporter: mCherry (pCS4076), ligand present: no
Summary of the method: as §2

hypoxanthine [4] = variants of: B1; assay: FACS-Seq fitted mean relative fluorescence mCherry/BFP with ligand (log10 relative fluorescence); ligand: hypoxanthine (xanthine aptamer); ligand concentration (+) FACS-Seq: 5 mM; higher = higher reporter protein expression; settings: HEK293T, ligand present: yes
Summary of the method: as §1

Row | Variant | FACS-Seq fitted mean (log10) (hypoxanthine [1]) | normalized RNA/DNA level with ligand (log10) (hypoxanthine [2]) | normalized RNA/DNA level without ligand (log10) (hypoxanthine [3]) | FACS-Seq fitted mean (log10) (hypoxanthine [4])
1 | GCUGUCACCGGUGUAUUACCCUAGUGGUCGACCGGUCUGAUGAGUCUAGAUUCAGACGAAACAGC [AGAUUC] | 0.691 ± 0.017 | 1.92 ± 0.051 | 1.92 ± 0.037 | 0.707 ± 0.069
2 | GCUGUCACCGGUGUAUUACCCUAGUGGUCGACCGGUCUGAUGAGUCUGGAUUGAGACGAAACAGC [GGAUUG] | 0.023 ± 0.012 | 1.857 ± 0.017 | 1.42 ± 0.059 | 0.4602 ± 0.0025
3 | GCUGUCACCGGUGUAUUACCCUAGUGGUCGACCGGUCUGAUGAGUCUCGAUUUAGACGAAACAGC [CGAUUU] | 0.4582 ± 0.0022 | 1.92 ± 0.089 | 1.847 ± 0.012 | 0.5218 ± 0.0046
4 | GCUGUCACCGGUGUAUUACCCUAGUGGUCGACCGGUCUGAUGAGUCUUGAUUUAGACGAAACAGC [UGAUUU] | 0.485 ± 0.022 | 1.945 ± 0.0024 | 1.924 ± 0.012 | 0.6805 ± 0.0064
5 | GCUGUCACCGGUGUAUUACCCUAGUGGUCGACCGGUCUGAUGAGUCUCGCAAAAGACGAAACAGC [CGCAAA] | 0.57 ± 0.013 | 1.897 ± 0.0028 | 1.7 ± 0.022 | 0.491 ± 0.024
6 | GCUGUCACCGGUGUAUUACCCUAGUGGUCGACCGGUCUGAUGAGUCUGGCAAAAGACGAAACAGC [GGCAAA] | -0.106 ± 0.017 | 1.9638 ± 0.0011 | 1.83 ± 0.037 | -0.0498 ± 0.0022
7 | GCUGUCACCGGUGUAUUACCCUAGUGGUCGACCGGUCUGAUGAGUCUUGCAAAAGACGAAACAGC [UGCAAA] | 0.613 ± 0.029 | 1.879 ± 0.0083 | 1.787 ± 0.017 | 0.635 ± 0.019
8 | GCUGUCACCGGUGUAUUACCCUAGUGGUCGACCGGUCUGAUGAGUCUGGCAACAGACGAAACAGC [GGCAAC] | -0.242 ± 0.05 | 1.947 ± 0.0067 | 1.86 ± 0.024 | -0.0947 ± 0.011
9 | GCUGUCACCGGUGUAUUACCCUAGUGGUCGACCGGUCUGAUGAGUCUAGCAACAGACGAAACAGC [AGCAAC] | 0.133 ± 0.046 | 1.91 ± 0.054 | 1.79 ± 0.043 | 0.1066 ± 0.00061
10 | GCUGUCACCGGUGUAUUACCCUAGUGGUCGACCGGUCUGAUGAGUCUGGCAAGAGACGAAACAGC [GGCAAG] | 0.564 ± 0.072 | 1.88 ± 0.028 | 1.47 ± 0.022 | 0.712 ± 0.075
11 | GCUGUCACCGGUGUAUUACCCUAGUGGUCGACCGGUCUGAUGAGUCUUGCAAGAGACGAAACAGC [UGCAAG] | 0.123 ± 0.078 | 1.853 ± 0.0049 | 1.72 ± 0.021 | 0.179 ± 0.031
12 | GCUGUCACCGGUGUAUUACCCUAGUGGUCGACCGGUCUGAUGAGUCUAGCAAGAGACGAAACAGC [AGCAAG] | 0.616 ± 0.025 | 1.81 ± 0.024 | 1.45 ± 0.056 | 0.87 ± 0.096
13 | GCUGUCACCGGUGUAUUACCCUAGUGGUCGACCGGUCUGAUGAGUCUGGCAAUAGACGAAACAGC [GGCAAU] | -0.272 ± 0.047 | 1.92 ± 0.04 | 1.86 ± 0.024 | -0.0445 ± 0.018
14 | GCUGUCACCGGUGUAUUACCCUAGUGGUCGACCGGUCUGAUGAGUCUAGCAAUAGACGAAACAGC [AGCAAU] | 0.645 ± 0.018 | 1.9127 ± 0.00078 | 1.8332 ± 0.00014 | 0.608 ± 0.03
15 | GCUGUCACCGGUGUAUUACCCUAGUGGUCGACCGGUCUGAUGAGUCUAGCACAAGACGAAACAGC [AGCACA] | -0.251 ± 0.011 | 1.92 ± 0.044 | 1.787 ± 0.0038 | -0.513 ± 0.043
16 | GCUGUCACCGGUGUAUUACCCUAGUGGUCGACCGGUCUGAUGAGUCUAGCACCAGACGAAACAGC [AGCACC] | -0.563 ± 0.05 | 1.98 ± 0.063 | 1.844 ± 0.0071 | -0.00735 ± 0.0039
17 | GCUGUCACCGGUGUAUUACCCUAGUGGUCGACCGGUCUGAUGAGUCUAGCACGAGACGAAACAGC [AGCACG] | 0.385 ± 0.023 | 1.87 ± 0.055 | 1.44 ± 0.085 | 0.609 ± 0.062
18 | GCUGUCACCGGUGUAUUACCCUAGUGGUCGACCGGUCUGAUGAGUCUGGCAGAAGACGAAACAGC [GGCAGA] | 0.082 ± 0.022 | 1.921 ± 0.0091 | 1.51 ± 0.065 | 0.449 ± 0.062
19 | GCUGUCACCGGUGUAUUACCCUAGUGGUCGACCGGUCUGAUGAGUCUUGCAGAAGACGAAACAGC [UGCAGA] | 0.169 ± 0.0021 | 1.84 ± 0.032 | 1.43 ± 0.021 | 0.4015 ± 0.00097
20 | GCUGUCACCGGUGUAUUACCCUAGUGGUCGACCGGUCUGAUGAGUCUAGCAGAAGACGAAACAGC [AGCAGA] | 0.386 ± 0.043 | 1.879 ± 0.01 | 1.41 ± 0.027 | 0.623 ± 0.019
21 | GCUGUCACCGGUGUAUUACCCUAGUGGUCGACCGGUCUGAUGAGUCUGGCAGCAGACGAAACAGC [GGCAGC] | 0.306 ± 0.06 | 1.921 ± 0.012 | 1.603 ± 0.0027 | 0.651 ± 0.043
